Common to all, as to test: cell-based or functional assay
For one experiment, the target named is human GLP-1 receptor (human, UniProt P43220 24-463).
The next experiment deals with human glucagon receptor (human, UniProt P47871 26-477).
The target in experiment [1] is T1, human glucose-dependent insulinotropic peptide (gastric inhibitory polypeptide) receptor (human, UniProt P48546 22-466).
T1 sequence (looked up): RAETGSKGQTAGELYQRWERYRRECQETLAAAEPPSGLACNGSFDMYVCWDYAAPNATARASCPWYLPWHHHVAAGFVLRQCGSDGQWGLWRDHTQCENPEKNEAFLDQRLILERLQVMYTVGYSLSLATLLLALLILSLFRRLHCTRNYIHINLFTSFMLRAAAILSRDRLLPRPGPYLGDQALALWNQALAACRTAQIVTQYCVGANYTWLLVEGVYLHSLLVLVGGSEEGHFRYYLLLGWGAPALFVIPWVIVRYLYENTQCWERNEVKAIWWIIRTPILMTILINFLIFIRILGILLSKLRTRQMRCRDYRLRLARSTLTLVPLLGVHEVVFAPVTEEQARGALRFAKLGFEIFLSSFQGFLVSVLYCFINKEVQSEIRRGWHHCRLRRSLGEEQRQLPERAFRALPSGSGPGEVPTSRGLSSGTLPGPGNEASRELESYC

Numbered stars: 1 amine (or outer) side, 2 acyl side, 3 side chain; on linkers, the order of the positions; unused ones are H or OH. Side chains are listed from the residue outwards. Ends that are not written are not given here. * marks the point of attachment. γGlu = O=C(O)[C@H](CCC(=O)[*:2])N[*:1]; Palmitoyl = CCCCCCCCCCCCCCCC(=O)*

human glucagon receptor, sequence (P47871 26-477): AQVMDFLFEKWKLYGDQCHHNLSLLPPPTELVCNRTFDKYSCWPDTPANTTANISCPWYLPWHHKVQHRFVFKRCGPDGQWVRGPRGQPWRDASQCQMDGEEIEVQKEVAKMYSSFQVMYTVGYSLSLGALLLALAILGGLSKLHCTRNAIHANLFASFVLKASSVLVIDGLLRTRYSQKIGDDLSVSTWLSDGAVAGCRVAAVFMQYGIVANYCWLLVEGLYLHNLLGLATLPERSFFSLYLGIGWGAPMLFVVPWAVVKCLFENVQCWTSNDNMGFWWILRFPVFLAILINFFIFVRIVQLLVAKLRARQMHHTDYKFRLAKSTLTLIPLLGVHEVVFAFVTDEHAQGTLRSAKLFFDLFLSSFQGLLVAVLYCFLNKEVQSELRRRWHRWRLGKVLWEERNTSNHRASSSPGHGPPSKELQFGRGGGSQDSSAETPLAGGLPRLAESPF

B1: g701 (peptide)
peptide: HSQGTFTSDYSK([γGlu-Palmitoyl])YLDSRRAQDFVQWLERGG-NH2
modifications: N-terminus assumed
SMILES: CCCCCCCCCCCCCCCC(=O)N[C@@H](CCC(=O)NCCCC[C@H](NC(=O)[C@H](CO)NC(=O)[C@H](Cc1ccc(O)cc1)NC(=O)[C@H](CC(=O)O)NC(=O)[C@H](CO)NC(=O)[C@@H](NC(=O)[C@H](Cc1ccccc1)NC(=O)[C@@H](NC(=O)CNC(=O)[C@H](CCC(N)=O)NC(=O)[C@H](CO)NC(=O)[C@@H](N)Cc1c[nH]cn1)[C@@H](C)O)[C@@H](C)O)C(=O)N[C@@H](Cc1ccc(O)cc1)C(=O)N[C@@H](CC(C)C)C(=O)N[C@@H](CC(=O)O)C(=O)N[C@@H](CO)C(=O)N[C@@H](CCCNC(=N)N)C(=O)N[C@@H](CCCNC(=N)N)C(=O)N[C@@H](C)C(=O)N[C@@H](CCC(N)=O)C(=O)N[C@@H](CC(=O)O)C(=O)N[C@@H](Cc1ccccc1)C(=O)N[C@H](C(=O)N[C@@H](CCC(N)=O)C(=O)N[C@@H](Cc1c[nH]c2ccccc12)C(=O)N[C@@H](CC(C)C)C(=O)N[C@@H](CCC(=O)O)C(=O)N[C@@H](CCCNC(=N)N)C(=O)NCC(=O)NCC(N)=O)C(C)C)C(=O)O
For the molecule B1, the “cAMP EC50 (assay 1)” value with human GLP-1 receptor is 7400 pM; with human glucagon receptor, 3830 pM.

B2: g728 (peptide)
peptide: HSQGTFTSDYSK([γGlu-Palmitoyl])YLDSRRAQDFVQWLVAGG-NH2
modifications: N-terminus assumed
SMILES: CCCCCCCCCCCCCCCC(=O)N[C@@H](CCC(=O)NCCCC[C@H](NC(=O)[C@H](CO)NC(=O)[C@H](Cc1ccc(O)cc1)NC(=O)[C@H](CC(=O)O)NC(=O)[C@H](CO)NC(=O)[C@@H](NC(=O)[C@H](Cc1ccccc1)NC(=O)[C@@H](NC(=O)CNC(=O)[C@H](CCC(N)=O)NC(=O)[C@H](CO)NC(=O)[C@@H](N)Cc1c[nH]cn1)[C@@H](C)O)[C@@H](C)O)C(=O)N[C@@H](Cc1ccc(O)cc1)C(=O)N[C@@H](CC(C)C)C(=O)N[C@@H](CC(=O)O)C(=O)N[C@@H](CO)C(=O)N[C@@H](CCCNC(=N)N)C(=O)N[C@@H](CCCNC(=N)N)C(=O)N[C@@H](C)C(=O)N[C@@H](CCC(N)=O)C(=O)N[C@@H](CC(=O)O)C(=O)N[C@@H](Cc1ccccc1)C(=O)N[C@H](C(=O)N[C@@H](CCC(N)=O)C(=O)N[C@@H](Cc1c[nH]c2ccccc12)C(=O)N[C@@H](CC(C)C)C(=O)N[C@H](C(=O)N[C@@H](C)C(=O)NCC(=O)NCC(N)=O)C(C)C)C(C)C)C(=O)O
Regarding B2, the figures for the “cAMP EC50 (assay 1)” value (in experiment [1]; in the experiment with human glucagon receptor) were 395 nM and 2440 pM, respectively.

For the molecule HSQGTFTSDYSKYLDSRRAQDFVQWLVAGGGGGGK-NH2 [g325], the “cAMP EC50 (assay 1)” value with human GLP-1 receptor was 26.1 pM; with human glucagon receptor it was 10.3 pM. With HSQGTFTSDYSKYLDSRRAQDFVQWLVAGGSGSGSG-NH2 [g402], the figures for the “cAMP EC50 (assay 1)” value with human GLP-1 receptor and with human glucagon receptor were 85.7 pM and 59.6 pM, respectively. In the case of HSQGTFTSDYSKYLDSRRAQDFVQWLVAGGSSGGSSK-NH2 [g317], in the experiment with human GLP-1 receptor, the “cAMP EC50 (assay 1)” value stood at 2630 pM.

For HSQGTFTSDYSKYLDSRRAQDFVQWLEAGG-NH2 [g840], the “cAMP EC50 (assay 1)” value was 145 pM with human GLP-1 receptor, 102 nM in experiment [1] and 5.3 pM with human glucagon receptor.

B3: g702 (peptide)
peptide: HSQGTFTSDYSK([γGlu-Palmitoyl])YLDSRRAQDFVQWLVAGG-NH2
modifications: N-terminus assumed
SMILES: CCCCCCCCCCCCCCCC(=O)N[C@@H](CCC(=O)NCCCC[C@H](NC(=O)[C@H](CO)NC(=O)[C@H](Cc1ccc(O)cc1)NC(=O)[C@H](CC(=O)O)NC(=O)[C@H](CO)NC(=O)[C@@H](NC(=O)[C@H](Cc1ccccc1)NC(=O)[C@@H](NC(=O)CNC(=O)[C@H](CCC(N)=O)NC(=O)[C@H](CO)NC(=O)[C@@H](N)Cc1c[nH]cn1)[C@@H](C)O)[C@@H](C)O)C(=O)N[C@@H](Cc1ccc(O)cc1)C(=O)N[C@@H](CC(C)C)C(=O)N[C@@H](CC(=O)O)C(=O)N[C@@H](CO)C(=O)N[C@@H](CCCNC(=N)N)C(=O)N[C@@H](CCCNC(=N)N)C(=O)N[C@@H](C)C(=O)N[C@@H](CCC(N)=O)C(=O)N[C@@H](CC(=O)O)C(=O)N[C@@H](Cc1ccccc1)C(=O)N[C@H](C(=O)N[C@@H](CCC(N)=O)C(=O)N[C@@H](Cc1c[nH]c2ccccc12)C(=O)N[C@@H](CC(C)C)C(=O)N[C@H](C(=O)N[C@@H](C)C(=O)NCC(=O)NCC(N)=O)C(C)C)C(C)C)C(=O)O
In the case of B3, in the experiment with human glucagon receptor, the “cAMP EC50 (assay 1)” value came out at 1490 pM.

Take HSQGTFTSDYSKYLDSRRAQDFVQWLVAGGPSSGAPPPSK-NH2 [g319]: the figures for the “cAMP EC50 (assay 1)” value with human GLP-1 receptor and in the experiment with human glucagon receptor were 36.1 pM and 10.4 pM, respectively.

B4: g318 (peptide)
peptide: HSQGTFTSDYSKYLDSRRAQDFVQWLVAGGSSGGSSK(Palmitoyl)-NH2
modifications: N-terminus assumed
SMILES: CCCCCCCCCCCCCCCC(=O)NCCCC[C@H](NC(=O)[C@H](CO)NC(=O)[C@H](CO)NC(=O)CNC(=O)CNC(=O)[C@H](CO)NC(=O)[C@H](CO)NC(=O)CNC(=O)CNC(=O)[C@H](C)NC(=O)[C@@H](NC(=O)[C@H](CC(C)C)NC(=O)[C@H](Cc1c[nH]c2ccccc12)NC(=O)[C@H](CCC(N)=O)NC(=O)[C@@H](NC(=O)[C@H](Cc1ccccc1)NC(=O)[C@H](CC(=O)O)NC(=O)[C@H](CCC(N)=O)NC(=O)[C@H](C)NC(=O)[C@H](CCCNC(=N)N)NC(=O)[C@H](CCCNC(=N)N)NC(=O)[C@H](CO)NC(=O)[C@H](CC(=O)O)NC(=O)[C@H](CC(C)C)NC(=O)[C@H](Cc1ccc(O)cc1)NC(=O)[C@H](CCCCN)NC(=O)[C@H](CO)NC(=O)[C@H](Cc1ccc(O)cc1)NC(=O)[C@H](CC(=O)O)NC(=O)[C@H](CO)NC(=O)[C@@H](NC(=O)[C@H](Cc1ccccc1)NC(=O)[C@@H](NC(=O)CNC(=O)[C@H](CCC(N)=O)NC(=O)[C@H](CO)NC(=O)[C@@H](N)Cc1c[nH]cn1)[C@@H](C)O)[C@@H](C)O)C(C)C)C(C)C)C(N)=O
Regarding B4, the “cAMP EC50 (assay 1)” value with human GLP-1 receptor came out at 1140 pM; in the experiment with human glucagon receptor it was 9040 pM.
